Results taken from the DeepSol protein solubility set.

assay: soluble on expression in E. coli; label from the status in PepcDB or PDB records

| Sequence | soluble on expression in E. coli |
| --- | --- |
| MRSTEVGRVVEDFIVLPPTPKSKWKLSDFELLHKLGGGNYGDVHLASVKDCNFVCALKRLSIKKLADFDIATQLRREIEIAFNTRHKYLLRTYAYFFDETDIYLIMEPCSNGMLYTELNRVKCFAPPTAARYVAQLAEALLYLHQHHILHRDIKPENILLDHNNNIKLADFGWSVHDPDNRRKTSCGTPEYFPPEIVGRQAYDTSADLWCLGIFCYELLVGKTPFVGKDTDQICKNIHSMHFKIPENIPSEAKDLIANLLLRDGSRRLALHRVVNHQFLLKYYYLPNNLQPPTGKRPRLDAEPTAGKEN | not soluble |
| MRSTKVIHIVGCHAEGEVGDVIVGGVAPPPGETVWEQSRFIANDETLRNFVLNKPRGGVFRHVNLLVPPKDPRAQMGFIIMEPADTPPMSGSNSICVSTVLLDSGIIAMQEPVTHMVLEAPGGIIEVEAECRNGKAERISVRNVPSFADRLDAPLDVTGLGTIMVDTAYGGDSFVIVDAAQIGMKIEPGQARELAEIGVKITKAANEQLGFRHPERDWRHISFCQITEPVTREGDVLTGVNTVAIRPAKFDRSPTGTGCSARMAVLHAKGQMKAGERFIGKSVLGTEFHCRLDKVLELGGKPAISPIISGRAWVTGTSQLMLDPSDPFPHGYRLSDTWPRDELEHHHHHH | soluble |
| MRTLAVISAGLSTPSSTRQIADSISEAVTAAVSARGEALSVSTIELSELIPDLMTAMTTRVHTTKLEEITSALSASDGLVVATPVFKASYTGLFKMFFDILDTDALTGMPTIIAATAGSARHSLVLDYALRPLLSYMRAVVVPTGVFAATEDFGGPEGAEFNKRIARAAGELASLIVEESGNVGLEHHHHHH | not soluble |
| MRTLFYSQLMYEAAKRQPHPHRCADGRTIADLSAQDLKKLNIAQLFFVAGRESEASYGDAYHRYHLYGAKQFEEYARKHLTHLFSEKEIVLYSRCIEDRIGDRFDETAEGYLIHLSHMIDLMRCKSPVEVFIGHSRGVSGIVPTLIQLFGREDGLDIMHYARSLFAATGEAVPYISSSEWPHLGIESDRVERALKIVGPLEVEGQEADAKKTAQAGFSVDGCYGALVKVDTPDWYHQVKEKEDYDVDEVIALPPQITIREEPPKANESFLLSLLRHVFWCCPSNQKRDDENTDVLEKKAQL | not soluble |
| MRTLLITGPGGSGRTTVAAATALRASRTGTRTLVLSADRTDTLGAALGVPTGGAPVEAAPGLTAWRPDAADRFRADLTAFQDRAATALDFLGAARLDAEELTPLPGAEELALLRALRDAALSEAYDLLVVDLPPAPQALALLALPEELRRYLRRLLPPERQAARALRPVLGRLAGVPMPADWLYETAARWDVELAAVEAVVEDRATTVRLVAEPGPAGADAVRAAATGFALRAVRIDTLIANRLLPEEADDAWSAGLAAQQRKFLEEWRGEYRLHELPHLGHDPRGADDLAALAVPGVNDAPGPVEWSVADRLADDGVLVWHIPLPGAIRDELDLLRRGDELVVTAGQFRRIVPLPSALRRCTVAGAALREGELRIRFAPDPDLWPRERLEHHHHHH | soluble |
| MRTNVRLLAYRLLRKYEKEKFISREDVDSVLSFLDDRDRRFFKELVWGVVRKEELLDWYINQLLKKKDIPPAVRVALRMGAYQLLFMNSVPDYAAVSETVKLVKNENFKKLVNAVLRRLRTVPEPKELHLVYSHPEWIVNYWRSFLPEEAVLRIMKWNQEPLPVMLRVNSLAATKEEVIKILAEEGTEAVPGKHAPFSLIVRKLGVPMNDSRVINDGLASVQGESSQLVPFFMELRPGLRVLDTCAAPGGKTTAIAELMKDQGKILAVDISREKIQLVEKHAKRLKLSSIETKIADAERLTEYVQDTFDRVLVDAPCTSLGTARNHPEVLRRVNKEDFEKFSEIQLRMVQQAWQLLEKGGILLYSTCTVTKEENTEVVKRFVYEQKDVEVIDIRDKMKEFEVEGIWDGYGFLMLPDETITPFYISVLRKMG | soluble |
| MRTPYCVADYLLDRLTDCGADHLFGVPGDYNLQFLDHVIDSPDICWVGCANELNASYAADGYARCKGFAALLTTFGVGELSAMNGIAGSYAEHVPVLHIVGAPGTAAQQRGELLHHTLGDGEFRHFYHMSEPITVAQAVLTEQNACYEIDRVLTTMLRERRPGYLMLPADVAKKAATPPVNALTHKQAHADSACLKAFRDAAENKLAMSKRTALLADFLVLRHGLKHALQKWVKEVPMAHATMLMGKGIFDERQAGFYGTYSGSASTGAVKEAIEGADTVLCVGTRFTDTLTAGFTHQLTPAQTIEVQPHAARVGDVWFTGIPMNQAIETLVELCKQHVHAGLMSSSSGAIPFPQPDGSLTQENFWRTLQTFIRPGDIILADQGTSAFGAIDLRLPADVNFIVQPLWGSIGYTLAAAFGAQTACPNRRVIVLTGDGAAQLTIQELGSMLRDKQHPIILVLNNEGYTVERAIHGAEQRYNDIALWNWTHIPQALSLDPQSECWRVSEAEQLADVLEKVAHHERLSLIEVMLPKADIPPLLGALTKALEACNNA | soluble |
| MRTVALGIVAMACLVAIAHGGNFFQDAEVSWGQGRGKIVDGGRGLDLTLDRSSGSGFQSKSEYLFGKIDMQIKLVPGNSAGTVTTFYLSSQGSTHDEIDFEFLGNVTGEPYTLHTNVFTQGQGQREQQFRLWFDPTQSFHTYSIIWNPQHVIFAVDGTPIRDFKNHEARGVAFPKSQPMRVYASLWNADDWATQGGRVKADWSKAPFVASFRDFNADACVWSNGAQRCPVGTMETVAAPAGGRRGGAGGWWNQELSDMSYRRMRWVQRKFMIYNYCTDAKRFPQGTPAECKLR | soluble |
| MRVARLFRFPVKGFPAEEIPEADVRTGRGIRGDRVAAFTNGSLDIPDDSWHRYSAFTVLKNDTDLQKWQVELDLAEAADSSQPAVADPSATVTLTSPQNETTTFRTDDRDTRATSADFLSARIPPQGDFPRALSVADQGMFDSQAAGVSIINPATVAAISQTADGQAALAPGETELDPLRFRGNVLVDGLAPFEEFALIGKIVRLGGVRLAITQAIERCPATTVNPTTTAVDVNVPRVLASACGHLHCGVYGRILESGLVSTGDEIEIEGDAPRELVKTARTPRFMTVLGSQQICNDIVEVSLRDDQGWIREFDEPGTNLRVHLDLGEPFWRTYTITDVSDDIVSIAVRTQGKGSRAVAELAAGQSVLASGPHGTMTANRVFGGTTALVTAGIGITPSLGLMRGAELSGTEKIKLFHVDRDHRTACLWDRLQKRAHSRQIPVETHHRDTASQGRPGHADLVDWLAGCDNVMVCGPADFTRAVLDASAEAGVPAVHQEIFASPNTGMSEAIAQCSPAEVTLENSGTSFLWEPQQGTLLEALEARGLRADNSCRGGSCGTCAVSLAAGSVIYPVEPAARIAADEVLVCSAVPSGPISLGILEHHHHHH | not soluble |
| MRVFPVTLGPLQENAYLVETGEGPVLIDPGDEPEKLLALFQTTGLIPLAILLTHAHFDHVGAVAPLVEALDLPVYLHPLDLPLYEGADLAARAWGLAIPKPPLPVRPLEEGMRLFGFQVLHLPGHSPGHVAFYDPEGAQVFSGDLLFRGSVGRYDLPGADPKALFASLKRLLSLPPETRVHPGHGPGTTLGLEARTNPFLTGLEWEA | soluble |
| MRVGIKVLGCPKNEADCEVLAGVLREGGHEIVFDVKDADVVVLDTCAFIEDAKRESIDEIFSFVDAKDQYGYKLVVKGCLVQRYYEELKKEIPEVDQWIGVADPEEIANAIENGTDLVPDQPETVYRYRKRIDLEERPYAYVKISDGCDRGCTFCSIPSFKGSLRSRSIEDITREVEDLLKEGKKEIILVAQDTTSYGIDLYRKQALPDLLRRLNSLNGEFWIRVMYLHPDHLTEEIISAMLELDKVVKYFDVPVQHGSDKILKLMGRTKSSEELKKMLSSIRERFPDAVLRTSIIVGFPGETEEDFEELKQFVEEIQFDKLGAFVYSDEEGTVAFNLKEKVDPEMAKRRQEELLLLQAEISNSRLDRFVGKKLKFLVEGKEGKFLVGRTWTEAPEVDGVVFVRGKGKIGDFLEVVIKEHDEYDMWGSVILEHHHHHH | soluble |
| MRVKAMASFSPFDVTLWYSTAAPAPLTEPLSGRIQADVCIVGAGYTGLTTALELAKAGVDVVLLERQEIGFGGSGRNAGHCTPTFTHYSLPELRKMLGETWAERLIERQTRANDRVSHMIRDYRINCEWVQNGYVMGAPHKGAIEEIRRKVETYNAVGAKTRLLGRDEVAAITGSPRFHGGWLHEEAGHLNPLAYARGLGGAVIQERGRIFTGSSVTGCERNATGGWKVRTEHGEVIASKVIFTTGAYTVGGWPKLDQTFKIQRVFVAATQILSEETRRTVLPRNTTIHDGRGDIYVYKYNAEGRIVASMFPMGRRGRDIVYTRQVMSDRLKWLHPQISADIRWDYFWFGELDMQYRTVPRLYDLSPGVVALTGLSGRGVPTGSMLGSILSEWALGKPENELALKVEPLKSAPFYMSFAPAMTLRYYRMRDNIATRLAGMELPPHALEHHHHHH | not soluble |
| MRVKGPSSRRKKKKILKLAKGYRGQRSRSYRRAKEAVMRALYYQYRDRKLRKREFRRLWIARINAAVRAYGLNYSTFINGLKKAGIELDRKILADMAVRDPQAFEQVVNKVKEALQVQ | soluble |
| MRVLALSAVFLVASIIGMPAVAKEWQENKSWNAHFTEHKSQGVVVLWNENKQQGFTNNLKRANQAFLPASTFKIPNSLIALDLGVVKDEHQVFKWDGQTRDIATWNRDHNLITAMKYSVVPVYQEFARQIGEARMSKMLHAFDYGNEDISGNVDSFWLDGGIRISATEQISFLRKLYHNKLHVSERSQRIVKQAMLTEANGDYIIRAKTGYSTRIEPKIGWWVGWVELDDNVWFFAMNMDMPTSDGLGLRQAITKEVLKQEKIIP | soluble |
| MRVLIVKTSSMGDVLHTLPALTDAQQAIPEIKFDWVVEEGFAQIPSWHAAVERVIPVAIRRWRKAWFSAPIKAERKAFREALQAENYDAVIDAQGLVKSAALVTRLAHGVKHGMDWQTAREPLASLFYNRKHHIAKQQHAVERTRELFAKSLGYSKPQTQGDYAIAQHFLTNLPTDAGEYAVFLHATTRDDKHWPEEHWRELIGLLADSGIRIKLPWGAPHEEERAKRLAEGFAYVEVLPKMSLEGVARVLAGAKFVVSVDTGLSHLTAALDRPNITVYGPTDPGLIGGYGENQVECRSTSMSLADLPAQTVFQNLNLEIITNKLTSEIR | not soluble |
| MRVLVRDLKAHVGQEVELLGFLHWRRDLGRIQFLLLRDRSGVVQVVTGGLKLPLPESALRVRGLVVENAKAPGGLEVQAKEVEVLSPALEPTPVEIPKEEWRANPDTLLEYRYVTLRGEKARAPLKVQAALVRGFRRYLDRQDFTEIFTPKVVRAGAEGGSGLFGVDYFEKRAYLAQSPQLYKQIMVGVFERVYEVAPVWRMEEHHTSRHLNEYLSLDVEMGFIADEEDLMRLEEALLAEMLEEALNTAGDEIRLLGATWPSFPQDIPRLTHAEAKRILKEELGYPVGQDLSEEAERLLGEYAKERWGSDWLFVTRYPRSVRPFYTYPEEDGTTRSFDLLFRGLEITSGGQRIHRYEELLESLKAKGMDPEAFHGYLEVFKYGMPPHGGFAIGAERLTQKLLGLPNVRYARAFPRDRHRLTP | soluble |
| MRVREPAVAGTFYPKDKEELNKLMDLLCGFEPKEKIKPKAILVPHAGYIYSGKTACEVYKRIEIPEKVVLLGPNHTGLGKPISVYSGDAWETPYGVVEIDGELREKILKYPYANPDEYAHLYEHSLEVQLPFLQRYARREFKILPIVVTFVEYEVAKDFGRFLGEVLKEEDALIVISSDMSHYVPAEEARKKDEILISAMERLNTEELYFKAVQYNITMCGVVPAVVGIESAKVLGATKGIVVDYSNSGDTTGDYSQVVAYLGMIFLLEHHHHHH | not soluble |
| MRVRNRKGATELLEANPQYVVLNPLEAKAKWRDLFGNDNPIHVEVGSGKGAFVSGMAKQNPDINYIGIDIQKSVLSYALDKVLEVGVPNIKLLWVDGSDLTDYFEDGEIDRLYLNFSDPWPKKRHEKRRLTYKTFLDTFKRILPENGEIHFKTDNRGLFEYSLVSFSQYGMKLNGVWLDLHASDFEGNVMTEYEQKFSNKGQVIYRVEAEF | soluble |
| MRVSKSKKPTEICPIVSAIAIIGSEPKLLTIRYLLDGPKRFNELQRLTSLSSKTLSKTLKELENHGIVERKIINSHPIVAVYELTDKGKDLKRVFDELRRWGEKFALTKIAVMNSIRVNQEF | soluble |
